{
  "source": "patent US10280218B2",
  "about": "“Antibodies binding to BMP4, and uses thereof” (ACADEMISCH MEDISCH CENTRUM, priority 2014, dated 2019)",
  "assay_type_in_all_cases": "cell-based",
  "key": {"BMP4": {"target": "T1, BMP4 (Homo sapiens, UniProt P12644)", "T1 sequence (P12644 293-408)": "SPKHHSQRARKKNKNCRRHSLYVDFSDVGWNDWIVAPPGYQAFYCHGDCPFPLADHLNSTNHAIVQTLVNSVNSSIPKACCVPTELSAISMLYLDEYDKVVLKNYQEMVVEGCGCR", "test": "Phosphorylation of SMAD1/5/8 in EPC2-hTERT cells (western blot)", "parameters": "purchased R&D Systems", "conditions": "100 ng/ml BMP4, 4 hours; indicated concentrations", "protocol": "EPC2-hTERT cells were stimulated with mouse BMP4 and pSMAD activation detected by Western Blotting.\nTo detect phosphorylation of SMAD1/5/8 in vitro, EPC2-hTERTs were cultured in 24-well plates and activated with 100 ng/ml of BMP2, BMP4, BMP5, BMP6 or BMP7 (R&D Systems) for 4 hours with or without VHH at the indicated concentrations. After activation, each well was washed twice with ice-cold PBS and lysed with 100 μl M-PER lysis buffer (Sigma-Aldrich, MO, United States) containing Halt Protease and Phosphatase Inhibitor Cocktail (Thermo Scientific, Landsmeer, The Netherlands). Cell debris were pelleted and supernatant was collected. 15 μg of protein was then separated by 10% SDS-PAGE and transferred onto a PVDF membrane (Millipore, Amsterdam, The Netherlands). The blots were then blocked with 5% milk in Tris-buffered saline supplemented with 0.1% Tween-20 (TBST) for 1 hour at room temperature and washed in TBST before overnight incubation at 4° C. with antiphospho-SMAD1/5/8 (Cell Signalling), anti-βactin (Santa Cruz) or anti-GAPDH (Millipore) in 5% Bovine Serum Albumin (BSA). […] After a final wash with TBST, blots were incubated for 5 minutes in LumiGlow (BIOKE, Leiden, The Netherlands) and then chemiluminescence was detected using a Fuji LAS4000 illuminator (Fujifilm Medical Systems, Stamford, Conn.). Protein was quantitated with Image)."}, "BMP2": {"target": "T2, BMP2 (Homo sapiens, UniProt P12643)", "T2 sequence (P12643 283-396)": "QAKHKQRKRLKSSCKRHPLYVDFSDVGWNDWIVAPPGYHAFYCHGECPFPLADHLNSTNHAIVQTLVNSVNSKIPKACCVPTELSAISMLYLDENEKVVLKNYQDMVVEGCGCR", "test": "Phosphorylation of SMAD1/5/8 in EPC2-hTERT cells (western blot)", "conditions": "100 ng/ml BMP2, 4 hours; indicated concentrations", "protocol": "To detect phosphorylation of SMAD1/5/8 in vitro, EPC2-hTERTs were cultured in 24-well plates and activated with 100 ng/ml of BMP2, BMP4, BMP5, BMP6 or BMP7 (R&D Systems) for 4 hours with or without VHH at the indicated concentrations. After activation, each well was washed twice with ice-cold PBS and lysed with 100 μl M-PER lysis buffer (Sigma-Aldrich, MO, United States) containing Halt Protease and Phosphatase Inhibitor Cocktail (Thermo Scientific, Landsmeer, The Netherlands). Cell debris were pelleted and supernatant was collected. 15 μg of protein was then separated by 10% SDS-PAGE and transferred onto a PVDF membrane (Millipore, Amsterdam, The Netherlands). The blots were then blocked with 5% milk in Tris-buffered saline supplemented with 0.1% Tween-20 (TBST) for 1 hour at room temperature and washed in TBST before overnight incubation at 4° C. with antiphospho-SMAD1/5/8 (Cell Signalling), anti-βactin (Santa Cruz) or anti-GAPDH (Millipore) in 5% Bovine Serum Albumin (BSA). Blots were then washed with TBST and incubated for 1 hour at room temperature in 1:2000 horseradish peroxidase—conjugated secondary antibody in TBST. After a final wash with TBST, blots were incubated for 5 minutes in LumiGlow (BIOKE, Leiden, The Netherlands) and then chemiluminescence was detected using a Fuji LAS4000 illuminator (Fujifilm Medical Systems, Stamford, Conn.). Protein was quantitated with Image). […]"}, "endogenous BMP activity": {"system": "endogenous BMP activity", "test": "BRE-luciferase activity of supernatants of mouse intestinal organoid cultures", "conditions": "supernatants of day 3; C4C4 100 ng/ml, C8C8 500 ng/ml or 5 μg/ml", "protocol": "Finally, the VHHs were tested in an intestinal organoid culture system for their ability to neutralize the function of BMP4 ex vivo. Inhibition of BMP activity is one of the requirements to maintain Intestinal Stem Cells in vitro cultured as “organoids” that mimic crypt-villus structures and is usually provided by the addition of Noggin to the media. Murine small intestine organoids were cultured in the presence or absence of the VHH biheads and compared to Noggin. To precisely determine which BMPs are present in these cultures, BMP secretion was measured in the conditioned media of intestinal organoids grown without Noggin for three days. Whereas BMP2, BMP4 and BMP6 could be detected by ELISA (FIG. 14A), BMP5 levels were negative, most likely due to the low sensitivity of the ELISA assay (>250 pg/mL), and not due to the lack of BMP5 in these cultures. Indeed, analysis of the protein lysates of these organoids, detected the presence of BMP2, BMP4, BMP5 and BMP6 (FIG. 14B). Next, freshly isolated crypts from murine small intestines were cultured with the VHHs and tested for their ability to provide endogenous BMP inhibition and to sustain organoid cultures ex vivo. […]\nOrganoids were cultured as previously described (Sato et al., 2009). […] Crypts were counted and resuspended in matrigel. […]"}},
  "data": [
    {"molecule": "C8E7: E7 linked to C8, hetero-dimer VHH bihead (protein) EVQLVESGGGLVQAGGSLRLSCAASGRTFRINDMGWYRQAPGKSRDMVARITSGGNTNYADSVKGRFTISRDNAKNTVYLQMNSLKPEDTAVYYCNADGLRFDSTRYRPFDSWGQGTQVTVSSGGGGSGGGGSEVQLVESGGGLVQAGGSLRLSCAASGSIRGFVAMAWYRQAPGKQREWVATVTNGGTLYGDSVKGRFTGSRDNAKNTVYLQMNSLKPEDTAVYYCALRQIGASGYDYWGQGTQVTVSS", "values": [
      {"measurement": "inhibition of BMP4 signaling (pSMAD1/5/8), dimer compared to monomer", "setting": "BMP4", "value": "better at inhibiting both BMP2 and BMP4 as compared to the E7 monomer"},
      {"measurement": "inhibition of BMP2 signaling (pSMAD1/5/8), dimer compared to monomer", "setting": "BMP2", "value": "better at inhibiting both BMP2 and BMP4 as compared to the E7 monomer"},
      {"measurement": "inhibition of endogenous BMP activity ex vivo (BRE-luciferase activity of organoid supernatants)", "setting": "endogenous BMP activity", "value": "to the same level as the natural inhibitor Noggin"}
    ]}
  ]
}
